From the nanobody polyreactivity screen of Harvey et al. (2022)

Assay: yeast display, Sf9 membrane polyspecificity reagent, FACS + sequencing; frameworks hold sequencing errors
In short: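 Sorting gates, low and high (top ~1%), were placed on anti-HA fluorescence to track expression and on streptavidin fluorescence to track reagent binding. A clone's polyreactivity label is taken from the gate it came out of. The reagent was 10% biotinylated, detergent-solubilized Sf9 membrane, applied for 1 hour at 4 °C to galactose-induced yeast display cells.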

Sequence	polyreactivity (PSR sort gate)
QVQLVESGGGLVQAGGSLRLSCAASGFIFLGNAMGWYRQAPGKERELVASISRGGSTNYADSVKGRFTISRDNAKNTVYLQMTSLKPEDTAVYYCAADLSDKFGYWGQGTQVTVSS	low polyreactivity
QVQLVESGGGLVQAGGSLRLSCAASGFIFLRYGMGWYRKAPGKERELVASIDSTGGSTYADSVKGRFTISRDNAKNTVYLQMNSLKPEDTAVYYCAAAYYIVSERDYWGQGTQVTVSS	low polyreactivity
QVQLVESGGGLVQAGGSLRLSCAASGFIFLYNAMGWYRQAPGKERELVATITSGGSTNYADSVKGRFTISRDNAKNTVYLQMNSLKPEDTAVYYCAVRRKAYYSYYYHDPYYYWGQGTQVTVSS	low polyreactivity
QVQLVESGGGLVQAGGSLRLSCAASGFIFLYYAMGWYIQAPGKERELVAAITTRGGRTYYADSVKGRFTISRDNAKNTVYLQMNSLKPEDTAVYYCAADHLYWGLEYESWGQGTQVTVSS	low polyreactivity
QVQLVESGGGLVQAGGSLRLSCAASGFIFNAYAMGWYRQAPGKERELVAAISTRGSNTYYADSVKGRFTISRDNAKNTVYLQMNSLKPEDTAVYDCAARGYVTYSKSNYWGQGTQVTVSS	high polyreactivity
QVQLVESGGGLVQAGGSLRLSCAASGFIFNIYAMGWYRQAPGKERELVAAITDDGSTNYADSVKGRFTISRDNAKNTVYLQMNSLKPEDTAVYYCAADDYYKFDYWGQGTQVTVSS	low polyreactivity
QVQLVESGGGLVQAGGSLRLSCAASGFIFNLYAMGWYRQAPGKEREFVAGISYSGNTYYADSVKGRFTISRDNAKNTVYLQMNSLKPEDTAVYYCAARRGYNDGYWGQGTKVTVSS	high polyreactivity
QVQLVESGGGLVQAGGSLRLSCAASGFIFNRNAMGWYRQAPGKERELVAGINSGGTTKYADSVKGRFTISRDNAKNTVYLQMNSLKPEDTAVYYCNRDWWWDHGRWYRTSRYDYWGQGTQVTVSS	low polyreactivity
QVQLVESGGGLVQAGGSLRLSCAASGFIFNRYAMGWYRPAPGNERELVATITRRGGRTYYADSVKGRFTISRDNAKNTVYLQMNSLKPEDTALYYCNADPNVPVETFDYWGQVTQVTVSS	high polyreactivity
QVQLVESGGGLVQAGGSLRLSCAASGFIFNSNARGWYRQAPGKERELVAAISGLGGSTYYADSVKGRFTISRDNAKNTVYIQMNSLKPEDTAVYYCAADVTYGTKWAYDYWGQGTQVTVSS	high polyreactivity
QVQLVESGGGLVQAGGSLRLSCAASGFIFNVNAMGWYRQAPGKERELVAAITGGGGSTYYADSVKGRFTISRDNAKNTVYLQMNSLKPEDTAVYYCARGRTIRSSRTGGSWGQGTQVTVSS	high polyreactivity
QVQLVESGGGLVQAGGSLRLSCAASGFIFNWYAMGWYRQAPGKERELVAAITSGGSTNYADSVKGRFTISRDNAKNTVYLQMNSLKTEDTAVYYCAARHWRRYGYWGQGTQVTVSS	high polyreactivity
QVQLVESGGGLVQAGGSLRLSCAASGFIFNYNAMGWYRQAPGKERELVAAIRTSSGSTYYADSVKGRFTISRDNAKNTVYLQMNSLKPEDTAVYYCGKTRYSTYSPIYYYWGQGTQVTVSS	high polyreactivity
QVQLVESGGGLVQAGGSLRLSCAASGFIFNYYTMGWYRQAPGKERELVAVITGGGGSTYYADSVKGRFTISRDNAKNTVYLQMNSLKPEDTAVYYCAAEWFSWGQGTQITVSS	low polyreactivity
QVQLVESGGGLVQAGGSLRLSCAASGFIFPANAMGWYRQAPGKEREFVAAISRSGGTTYYADSVKGRFTISRDNAKNTVYLQMNSLKPEDTAVYYCAARYAIGPGYDYWGQGTQVTVSS	high polyreactivity
QVQLVESGGGLVQAGGSLRLSCAASGFIFPDYAMGWYRPAPGKERELVAAINRRGSRTYYADSVKGRFTISRDNAKNTVYLQMNSLKPEDTAVYYCNRDVGKVYAVIYDYWGQGTQVTVSS	high polyreactivity
QVQLVESGGGLVQAGGSLRLSCAASGFIFPGHAMGWYRQAPGKERELVAAISTSGGSTYYADSVKGRFTISRDNAKNTVYLQMNSLKPEDTAVYYCATKRPYVDDYGYWGQGTQVTVSS	high polyreactivity
QVQLVESGGGLVQAGGSLRLSCAASGFIFPIYAMGWYRQEHGKERELVAGISGSGTSTYYADSVKGRFTISLDYAKNTVYLQMNSLKPVDNAVYYCNAKYPWGNYKSVSYDYWGQGTQVTVSS	high polyreactivity
QVQLVESGGGLVQAGGSLRLSCAASGFIFPPYAMGWYRQAPGTERELVAAIRISGGSTYYADSVKGRFTISRDNAKNTVYFHLNSLKPEDTAVYYCAARYVSSTPAFAYYYWGQGTQVTVSS	high polyreactivity
QVQLVESGGGLVQAGGSLRLSCAASGFIFPPYDMGWYRQAPGKERELVAGISDVGTTYYADSVKGRYTISRDNAKNPVYLQMNSLKPEDSAVYYCAAESQGDDQFWTGGYDSWGQGTQVTVSS	low polyreactivity
QVQLVESGGGLVQAGGSLRLSCAASGFIFPPYTMGWYRQAPGKERELVAAINSGGSTYYADSVKGRFTISRDNAKNTVYLPMNSLKPEDTAVYYCAADTDRALAHFDYWGQGTQVTVSS	low polyreactivity
QVQLVESGGGLVQAGGSLRLSCAASGFIFPTYAMGWYRQAPGKERELVATITTNAGGTHYADSVKGRFTISRDNAKNTVYLQMNSLKPEDTAVYYCAAKQYRPKQRKYWTRIYDYWGQGTQVTVSS	low polyreactivity

Sequence	polyreactivity (PSR sort gate)
QVQLVESGGGLVQAGGSLRLSCAASGFIFPVNARGGSRQAPGKERELHADISSDGSTNYADSVKGRFTISRDNAKNTVYLQMNSLKPEDTAVYYCAREDNLRHQSDSRYDYWGQGTQVTVSS	low polyreactivity
QVQLVESGGGLVQAGGSLRLSCAASGFIFPWYTMGWYRQAPGKERELVAVINQSGGSTYYADSVKGRFTISRDNAKNTVYLQMNSLKPEDTAVYYCAAKSYRGSVKLRWSERGYWGQGTQVTVSS	high polyreactivity
QVQLVESGGGLVQAGGSLRLSCAASGFIFPYYAMGWYRQAPGKERELVAAISSGGSTYYADSVKGRFTISRDNAKNSVYLQMNSLKPEDTAVYYCAVRITYWTGEFDYWGQGTQVTVSS	high polyreactivity
QVQLVESGGGLVQAGGSLRLSCAASGFIFPYYAMGWYRQAPGKERELVAANSRRGTSTFYADSVKGRFTISRDNAKNNVYLQMNSLKTEDTAVYYCNAEYGIGDDSWVQGTQVTVSS	high polyreactivity
QVQLVESGGGLVQAGGSLRLSCAASGFIFQANAMGWYRQAPGKERELVAAIDDGDSTYADSVKGRFTISRDNAKNTVYLQMNSLKPEDTAVYYCATRRNRSYDYWGQGTQVTVSS	low polyreactivity
QVQLVESGGGLVQAGGSLRLSCAASGFIFQGYARGWYRQAPGKERELVATISKSGGSTYYADSVKGRFTISRDTAKNTVYLQMTSLKPEDTAVYYCNARPGQSGARFGYWGQGTQVTVSS	high polyreactivity
QVQLVESGGGLVQAGGSLRLSCAASGFIFQKYAMGWYRQAPGKERELVAAISRSGGSTYYADSVKGRFTISRDNAKNTDYLQMNSLKPEDTAVYYCAARYKGRAFWMDYWGQGTQVTVSS	high polyreactivity
QVQLVESGGGLVQAGGSLRLSCAASGFIFQPYAMGWSRQAPGKERELVAAITSRGGRTYYADSVKGRFTISRDNAKNTVYLQMNSLKPEDTAVYYCNADIYASEYYYWGQGTQLTVSS	low polyreactivity
QVQLVESGGGLVQAGGSLRLSCAASGFIFQTNVMGWYRQAPGKERELVAAISSGDSTYYADSVKGRFTISRDNAKNTVYLQMNSLKPEDTAVYYCAADSIRTLLTGNTVYIWYGYWGQGTQVTVSS	low polyreactivity
QVQLVESGGGLVQAGGSLRLSCAASGFIFQWYAMGWYRQAPGKERELVAAISIGDSTYYADSVKGRFTISRDNAKNTVYLQMNSLKPADTAVYFCNADPWGYYSVIPLYEYDYWGQGTQVTVSS	low polyreactivity
QVQLVESGGGLVQAGGSLRLSCAASGFIFQWYAMGWYRQAPGKERELVAAISIGDSTYYADSVKGRFTISRDNAKNTVYLQMNSLKPEDTAVYYCNSDPWGYYCVIPLYEYDYWGQGTQVTVSS	low polyreactivity
QVQLVESGGGLVQAGGSLRLSCAASGFIFQYNAMGWYRQAPGKERELVAAISKSGGRTYYADSVKGRFTISRDNPKNTVDLQMNSLKPEDTAVYYCAALYVWLWGYRFDYWGQGTQVTVSS	high polyreactivity
QVQLVESGGGLVQAGGSLRLSCAASGFIFQYYGMGWYRQAPGQVRELVAAIDSRGGSTYYADSVKGRFTISRDNAKNTVSLQMNSLKPADTAVYYCAAMGLYQGTLNHFYYWGQGTQVTVAS	low polyreactivity
QVQLVESGGGLVQAGGSLRLSCAASGFIFRAYAMGWYRQAPGKERELVAAITKRSGTTYYADSVKGRFTISRDNAKNTVYLQMHSLKPEDTAVYYCAARYYRDYRWYTYAYDYWGQGTQVTVSS	high polyreactivity
QVQLVESGGGLVQAGGSLRLSCAASGFIFRAYTKGWYRQAPGKERELVAAITSSGGRTNYADSVKGRFTISRDNAKNTVYLQMNSLKPEDTAVYYCATVYAKWKQFDYWGQGTQVTVSS	high polyreactivity
QVQLVESGGGLVQAGGSLRLSCAASGFIFRAYTMGWYRQAPGKERELVAAITSSGGRTYYADSVKGRFTISRDNAKNTVYLQMNSLKPEDTAVYYCATVYAKWKQFDYWGQGTQVTVSS	high polyreactivity
QVQLVESGGGLVQAGGSLRLSCAASGFIFRFNAMGWYRQAPGKEREMVAAISWRGGSTYYADSVKGRFTISRDNAKNTVYLQMNSLKPEDTAVYYCAADVTRYYRYGYNYWGQGSQVTVSS	high polyreactivity
QVQLVESGGGLVQAGGSLRLSCAASGFIFRFYAMGWYRQAPGKERELVAAISSDGSTNYADSVKGRFTISRDNAKNTVYLQMNSLKPEDTAVYYCNADYYEYYSGPTLVVYIYGYWGQGTQVTVSS	low polyreactivity
QVQLVESGGGLVQAGGSLRLSCAASGFIFRGYAMGWYRQAPGKERELVAAINYSGGSTYYADSVKGRFTISRDNAKNTVYLQMNSLKPEDTAVYYCAAGKRGDDDYWGQGTQVTVSS	high polyreactivity
QVQLVESGGGLVQAGGSLRLSCAASGFIFRGYAMGWYRQAPGKERELVAAITSSGGDTYYADSVKGRFTISRDNAKNTVYLQMNSLKPEDTAVYYCNARVYASGTEGDYWGQGTQVTVSS	low polyreactivity
QVQLVESGGGLVQAGGSLRLSCAASGFIFRHYAMGWYRPAPGKERELVAAITSGGTTYYADSVKGRFTISRDNAKNTVYLQMNSLKPEDTAVYYCNTVYYRPGQDVDYWGQGTQVTVSS	high polyreactivity
